Experimental data reported in the supplement of paper PMC9732359.
± gives the uncertainty stated by the source.

Experiment: protein stability index of a GFP-peptide fusion (yeast GPS) (PSI 1-4); higher = more stable; sorted into four equal gates, so the index is relative within each strain
Summary of the method: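 Tiled yeast protein peptides of 17 residues were each joined downstream of GFP, on plasmids that also express Cherry. The pooled library was maintained in yeast, and mid-log cultures in leucine-free medium were sorted into four equal gates on the GFP/Cherry ratio. Plasmids from every gate were amplified by PCR and sequenced on Illumina, with barcodes linking reads to strains. The protein stability index of a peptide is its gate-number-weighted read frequency summed over the gates.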

Sequence | protein stability index (doa10∆) | protein stability index (pdr5∆) | protein stability index (san1∆) | protein stability index (ubr1∆)
MQAIADSFSVPNRLVKE [PRE2] | 2.94 ± 0.14 | 3.02 ± 0.24 | 3.03 ± 0.14 | 
FSKQCLISNAIYGKKTM [ECM29] | 1.15 ± 0.098 | 1.95 ± 0.077 | 1.63 ± 0.14 | 1.82 ± 0.067
VNDVELAFKKNEMLLKR [MTW1] | 3.24 ± 0.19 | 3.46 ± 0.14 | 3.4 ± 0.14 | 3.11 ± 0.066
TPAFGSNNTGNTAFGNS [YJL041W/NSP1] | 2.85 ± 0.11 | 3.13 ± 0.081 | 3.28 ± 0.067 | 3.08 ± 0.049
SCSFFAKLSDTLIIDQV [NUT1] | 2.22 ± 0.052 | 1.79 ± 0.051 | 2.06 ± 0.11 | 1.91 ± 0.039
GKGDNDNGLGPLKYAPH [SWI3] | 2.69 ± 0.058 | 3.39 ± 0.12 | 2.85 ± 0.085 | 2.7 ± 0.052
GITYRREDMPFTAEGIV [RPB2] | 2.52 ± 0.096 | 1.86 ± 0.099 | 2.39 ± 0.13 | 2.07 ± 0.12
NESSLALEFVSLLLSSV [SRB4] | 1.18 ± 0.045 | 1.33 ± 0.048 | 1.53 ± 0.09 | 1.6 ± 0.05
FFMSERSSRLHIVYSLL [YML103C/NUP188] | 1.91 ± 0.06 | 2.33 ± 0.079 | 1.55 ± 0.11 | 2.08 ± 0.053
LNNTHVISSGPLAAGNF [RPC53] | 2.74 ± 0.086 | 3 ± 0.1 | 2.69 ± 0.074 | 2.49 ± 0.049
QILQGICKNCSAILLSE [RPO31] | 2.17 ± 0.071 | 2.23 ± 0.061 | 2.26 ± 0.13 | 2.43 ± 0.069
ISKQRTFAVILFLIIQC [YMR129W/POM152] | 1.38 ± 0.051 | 1.38 ± 0.067 | 1.32 ± 0.087 | 1.51 ± 0.058
ETEAEEDHMLKKIENTM [RPO21] |  | 3.37 ± 0.18 |  | 3.46 ± 0.15
VAGLEDKFRKACSSSGR [SIR3] | 3.16 ± 0.14 | 2.93 ± 0.095 | 2.98 ± 0.18 | 2.9 ± 0.056
NSNGIAMASLYLTGGQQ [SMD1] | 2.44 ± 0.073 | 2.66 ± 0.06 | 2.63 ± 0.063 | 2.59 ± 0.059
SEEKIRDYSKEILGINL [SIR4] | 3.17 ± 0.14 | 3.03 ± 0.083 | 2.88 ± 0.073 | 3.06 ± 0.064
FGRKNDRQCMIMDELLS [DIB1] | 2.57 ± 0.047 | 2.65 ± 0.038 | 2.49 ± 0.057 | 2.73 ± 0.034
KLILHAIHIFESYYNWK [YML103C/NUP188] | 1.57 ± 0.082 | 1.45 ± 0.07 | 1.58 ± 0.081 | 1.82 ± 0.056
GFINQKNLKPQEQLKNV [YIL149C/MLP2] | 3.09 ± 0.11 | 2.84 ± 0.081 | 2.77 ± 0.062 | 2.9 ± 0.068
EEEEDTTTTANINEVKK [NUT1] | 3.24 ± 0.098 | 3.39 ± 0.11 | 3.09 ± 0.084 | 3.33 ± 0.15
HCYPRQLCQITCQILES [RRP46] | 1.8 ± 0.059 | 1.9 ± 0.058 | 1.72 ± 0.088 | 2 ± 0.048
YLKHNSIAEEIPIAIVL [RET1] | 2.65 ± 0.052 | 2.18 ± 0.047 | 1.73 ± 0.085 | 2.16 ± 0.05
MSAPEAQQQKRGGFGGR [RPS2] |  | 3.25 ± 0.13 | 3.28 ± 0.1 | 3.33 ± 0.17
PFGAKSTKSNKTRNPLT [RPL8A] | 2.73 ± 0.072 | 2.99 ± 0.062 | 2.88 ± 0.057 | 2.8 ± 0.056
DHTVDEIDHVEYYVMMD [SRB8] | 3.01 ± 0.083 | 2.63 ± 0.062 | 2.96 ± 0.081 | 3.02 ± 0.047
DGRVNRFYELEESLTVL [YJR042W/NUP85] | 2.28 ± 0.12 | 2.21 ± 0.13 |  | 1.99 ± 0.1
AVVVGTGNIKHEDLVNS [COR1] | 3.05 ± 0.11 | 2.79 ± 0.12 | 2.93 ± 0.077 | 2.71 ± 0.11

Sequence | protein stability index (doa10∆) | protein stability index (pdr5∆) | protein stability index (san1∆) | protein stability index (ubr1∆)
MDWLDNWGRKEHDLLRQ [ITC1] | 3.22 ± 0.19 | 3.33 ± 0.26 | 3.48 ± 0.13 | 
PTQITQYTQRLSKLEKA [SRP68] | 1.75 ± 0.06 | 2.08 ± 0.045 | 2.06 ± 0.079 | 2.48 ± 0.045
DNATLTELVDKANIFQV [SSN2] | 3.09 ± 0.15 | 3.56 ± 0.12 | 3.21 ± 0.085 | 3.11 ± 0.11
FDQAGKKVSRRNARAAR [RPL13B] | 3.08 ± 0.091 | 3.01 ± 0.14 | 2.67 ± 0.28 | 3.29 ± 0.094
SYTFRSEKGLLSATQFT [FAS1] | 2.67 ± 0.052 | 2.65 ± 0.046 | 2.84 ± 0.045 | 2.78 ± 0.036
TIKVAGTPLLEVRGQVP [SNU114] | 2.67 ± 0.08 | 2.69 ± 0.067 | 2.94 ± 0.063 | 2.98 ± 0.069
IDMDKLNTVLIADLDTE [RRP43] | 2.66 ± 0.099 | 3.02 ± 0.07 | 2.83 ± 0.066 | 3.22 ± 0.057
PNIHQNLLPKKSAKATK [HTA1] | 2.53 ± 0.093 | 2.66 ± 0.082 | 2.69 ± 0.1 | 2.49 ± 0.061
SLEQRQEVTKFAKANIG [RPN4] | 2.82 ± 0.15 | 2.98 ± 0.24 | 2.83 ± 0.11 | 
TFSVYHESTSRTDQYTI [YMR129W/POM152] | 2.63 ± 0.15 | 2.64 ± 0.077 | 2.58 ± 0.098 | 2.62 ± 0.066
AAKGSSTSYAIKKKDEL [RPS5] | 3.4 ± 0.18 | 1.82 ± 0.085 | 3.35 ± 0.087 | 3.28 ± 0.13
KLDASKKQQAALTNELN [YIL149C/MLP2] | 2.79 ± 0.069 | 2.99 ± 0.075 | 2.68 ± 0.08 | 2.17 ± 0.062
SPVTGDNSPSEDFMDIP [SNF2] | 3.21 ± 0.12 | 3.25 ± 0.1 | 2.81 ± 0.17 | 3.42 ± 0.058
HIRKASSKKSKRLDKVG [LRP1] | 3.21 ± 0.087 | 2.78 ± 0.1 | 2.97 ± 0.061 | 2.95 ± 0.066
INYAFSMDEEFKNMDCI [SIR3] | 3.21 ± 0.051 | 3.22 ± 0.042 | 3.26 ± 0.033 | 3.321 ± 0.031
TLLKKANRDDVKGRENE [RPC82] |  | 3.5 ± 0.23 |  | 3.15 ± 0.17
MAKRVADAQIQRETYDS [YLR335W/NUP2] | 2.21 ± 0.22 | 2.7 ± 0.14 | 2.08 ± 0.12 | 2.21 ± 0.1
TRLWGSVYYHKGNFRTK [SNU114] | 3.35 ± 0.064 | 3.46 ± 0.093 | 3.35 ± 0.06 | 3.32 ± 0.082
NLQVELLSEHDDHNGEV [YGL100W/SEH1] | 3.12 ± 0.088 | 3.2 ± 0.071 | 2.83 ± 0.06 | 3.37 ± 0.055
FNLLILSLNKRIYDREP [YCG1] | 2.75 ± 0.11 | 2.41 ± 0.091 | 2.22 ± 0.13 | 2.33 ± 0.045
SSDALSKEKANFLETIA [SIR4] | 1.49 ± 0.057 | 1.68 ± 0.046 | 1.38 ± 0.091 | 1.52 ± 0.048
RYPMNLLEFIIDEIAYL [ECM29] | 2.43 ± 0.097 | 2.89 ± 0.1 | 2.75 ± 0.091 | 2.89 ± 0.2
RKYSFNYSSLPSPYKTT [YAR002W/NUP60] | 2.56 ± 0.054 | 2.8 ± 0.05 | 2.71 ± 0.058 | 2.71 ± 0.045
NSTDGAKITEIGSTSKR [YIL149C/MLP2] | 3.02 ± 0.12 | 2.91 ± 0.086 | 3.01 ± 0.074 | 3.18 ± 0.062
SDMENDNLLLNLEQINE [REC8] | 2.76 ± 0.056 | 2.75 ± 0.048 | 2.72 ± 0.06 | 2.86 ± 0.048
LQYLDKHIKNLEDDSLL [RPN12] | 3.44 ± 0.068 | 3.42 ± 0.081 | 3.35 ± 0.063 | 3.3 ± 0.049
